# Experimental data published in the Immune Epitope Database (IEDB).
# What was measured:
# HLA-B*35:01 = test: IEDB peptide-MHC binding, purified MHC/competitive/fluorescence; filed as Kd, often an IC50 or EC50 that approximates it; ≥ and ≤ were set here for values at or beyond the usual limits of such assays; conditions: source organism: Horsepox virus
# HLA-A*11:01 = test: IEDB peptide-MHC binding, purified MHC/direct/fluorescence; filed as Kd, often an IC50 or EC50 that approximates it; ≥ and ≤ were set here for values at or beyond the usual limits of such assays
# HLA-B*15:17 [1] = test: as above
# HLA-A*02:01 [2] = test: as above
# HLA-A*31:01 = test: as above
# HLA-A*01:01 [3] = test: as above
# HLA-B*57:01 = test: as above
# HLA-B*27:05 [4] = test: as above
# HLA-B*48:01 = test: as above
# HLA-A*69:01 [5] = test: as above
# HLA-B*07:02 = test: as above
# HLA-B*58:01 = test: as above
# HLA-B*15:02 = test: as above
# HLA-A*26:01 = test: as above
# HLA-B*46:01 = test: as above
# HLA-B*15:01 = test: as above
# HLA-A*26:02 = test: as above; conditions: source organism: Variola virus
# HLA-A*68:02 = test: as above
# HLA-B*08:03 = test: as above
# HLA-A*01:01 [6] = test: IEDB peptide-MHC binding, purified MHC/competitive/fluorescence; ≥ and ≤ were set here for values at or beyond the usual limits of such assays
# HLA-B*15:09 = test: IEDB peptide-MHC binding, purified MHC/competitive/fluorescence; filed as Kd, often an IC50 or EC50 that approximates it; ≥ and ≤ were set here for values at or beyond the usual limits of such assays
# HLA-B*39:01 = test: as above
# HLA-B*40:01 = test: IEDB peptide-MHC binding, purified MHC/direct/fluorescence; filed as Kd, often an IC50 or EC50 that approximates it; ≥ and ≤ were set here for values at or beyond the usual limits of such assays
# HLA-B*44:02 = test: as above; conditions: source organism: Camelpox virus M-96
# HLA-B*18:01 = test: as above
# HLA-B*27:05 [7] = test: IEDB peptide-MHC binding, purified MHC/competitive/fluorescence; ≥ and ≤ were set here for values at or beyond the usual limits of such assays
# HLA-B*08:02 = test: IEDB peptide-MHC binding, purified MHC/direct/fluorescence; filed as Kd, often an IC50 or EC50 that approximates it; ≥ and ≤ were set here for values at or beyond the usual limits of such assays
# HLA-A*03:01 = test: as above
# HLA-B*51:01 = test: as above; conditions: source organism: Mycobacterium tuberculosis
# HLA-A*02:11 = test: IEDB peptide-MHC binding, purified MHC/competitive/fluorescence; filed as Kd, often an IC50 or EC50 that approximates it; ≥ and ≤ were set here for values at or beyond the usual limits of such assays; conditions: source organism: Encephalitozoon cuniculi GB-M1
# HLA-A*02:01 [8] = test: as above; conditions: source organism: Encephalitozoon cuniculi GB-M1
# HLA-A*02:19 = test: as above; conditions: source organism: Encephalitozoon cuniculi GB-M1
# HLA-A*02:16 = test: as above; conditions: source organism: Encephalitozoon cuniculi GB-M1
# HLA-A*02:06 = test: as above; conditions: source organism: Encephalitozoon cuniculi GB-M1
# HLA-A*02:12 = test: as above; conditions: source organism: Encephalitozoon cuniculi GB-M1
# HLA-A*69:01 [9] = test: as above; conditions: source organism: Encephalitozoon cuniculi GB-M1
# HLA-A*02:03 = test: as above
# HLA-A*02:50 = test: as above; conditions: source organism: Encephalitozoon cuniculi GB-M1
# HLA-B*15:17 [10] = test: as above; conditions: source organism: Giardia lamblia ATCC 50803
# HLA-B*08:01 = test: IEDB peptide-MHC binding, purified MHC/direct/fluorescence; filed as Kd, often an IC50 or EC50 that approximates it; ≥ and ≤ were set here for values at or beyond the usual limits of such assays; conditions: source organism: Giardia lamblia ATCC 50803
# [11] = source organism: Camelpox virus M-96
# [12] = source organism: Vaccinia virus Copenhagen
# [13] = source organism: Corynebacterium efficiens YS-314
# [14] = source organism: Mycobacterium tuberculosis
# [15] = source organism: Mycobacterium tuberculosis F11
# [16] = source organism: Giardia lamblia ATCC 50803
# [17] = source organism: Mycobacterium tuberculosis str. Haarlem
sequence,measurement,setting,value
LLRDKDGVY,Kd,HLA-B*35:01,0.0677 µM
same,Kd,HLA-A*11:01; [11],≥ 20 µM
same,Kd,HLA-B*15:17 [1]; [11],0.393 µM
same,Kd,HLA-A*02:01 [2]; [11],≥ 20 µM
same,Kd,HLA-A*31:01; [11],≥ 20 µM
same,Kd,HLA-A*01:01 [3]; [11],≥ 20 µM
same,Kd,HLA-B*57:01; [11],≥ 20 µM
same,Kd,HLA-B*27:05 [4]; [11],≥ 20 µM
same,Kd,HLA-B*48:01; [11],≥ 20 µM
same,Kd,HLA-A*69:01 [5]; [11],≥ 20 µM
same,Kd,HLA-B*07:02; [11],≥ 20 µM
same,Kd,HLA-B*58:01; [11],≥ 20 µM
same,Kd,HLA-B*15:02; source organism: Variola virus,0.043 µM
same,Kd,HLA-A*26:01; source organism: Variola virus,≥ 20 µM
same,Kd,HLA-B*46:01; [11],≥ 20 µM
same,Kd,HLA-B*15:01; [11],0.0693 µM
same,Kd,HLA-A*26:02,≥ 20 µM
same,Kd,HLA-A*68:02; [11],≥ 20 µM
same,Kd,HLA-B*08:03; source organism: Variola virus,≥ 20 µM
QSEHSFEEM,IC50,HLA-A*01:01 [6]; source organism: Zaire ebolavirus,39.6 µM
WENGFKVVL,Kd,HLA-B*15:09; [12],3.09 µM
same,Kd,HLA-B*39:01; [12],0.493 µM
same,Kd,HLA-A*11:01; [11],≥ 20 µM
same,Kd,HLA-B*15:17 [1]; [11],≥ 20 µM
same,Kd,HLA-A*02:01 [2]; [11],≥ 20 µM
same,Kd,HLA-A*31:01; [11],≥ 20 µM
same,Kd,HLA-A*01:01 [3]; [11],≥ 20 µM
same,Kd,HLA-B*57:01; [11],≥ 20 µM
same,Kd,HLA-B*40:01; [11],0.004 µM
same,Kd,HLA-B*27:05 [4]; [11],≥ 20 µM
same,Kd,HLA-B*48:01; [11],0.101 µM
same,Kd,HLA-B*44:02,≥ 20 µM
same,Kd,HLA-A*69:01 [5]; [11],≥ 20 µM
same,Kd,HLA-B*07:02; [11],≥ 20 µM
same,Kd,HLA-B*58:01; [11],≥ 20 µM
same,Kd,HLA-B*18:01; [11],≤ 0.001 µM
same,Kd,HLA-A*68:02; [11],≥ 20 µM
LTDSLSSQM,IC50,HLA-A*01:01 [6]; [12],2.54 µM
RLFPGLAIK,IC50,HLA-B*27:05 [7]; source organism: Homo sapiens,0.146 µM
MPRLSRNAA,Kd,HLA-B*15:09; [13],≥ 20 µM
same,Kd,HLA-B*39:01; [13],0.25 µM
same,Kd,HLA-A*11:01; [14],≥ 20 µM
same,Kd,HLA-B*15:17 [1]; [14],≥ 20 µM
same,Kd,HLA-A*02:01 [2]; [14],≥ 20 µM
same,Kd,HLA-B*08:02; [15],≥ 20 µM
same,Kd,HLA-A*03:01; [14],≥ 20 µM
same,Kd,HLA-A*31:01; [14],≥ 20 µM
same,Kd,HLA-A*01:01 [3]; [14],≥ 20 µM
same,Kd,HLA-B*57:01; [14],≥ 20 µM
same,Kd,HLA-B*40:01; [14],≥ 20 µM
same,Kd,HLA-B*27:05 [4]; [14],≥ 20 µM
same,Kd,HLA-B*48:01; [14],≥ 20 µM
same,Kd,HLA-A*69:01 [5]; [14],≥ 20 µM
same,Kd,HLA-B*58:01; [14],≥ 20 µM
same,Kd,HLA-B*18:01; [14],8.28 µM
same,Kd,HLA-A*26:01; [15],≥ 20 µM
same,Kd,HLA-B*46:01; [14],≥ 20 µM
same,Kd,HLA-B*51:01,0.655 µM
same,Kd,HLA-B*15:01; [14],≥ 20 µM
ALEEGRKYV,Kd,HLA-A*02:11,0.0029 µM
same,Kd,HLA-A*02:01 [8],0.654 µM
same,Kd,HLA-A*02:19,0.437 µM
same,Kd,HLA-A*02:16,0.0068 µM
same,Kd,HLA-A*02:06,0.0087 µM
same,Kd,HLA-A*02:12,0.0425 µM
same,Kd,HLA-A*69:01 [9],5.7 µM
same,Kd,HLA-A*02:03; source organism: Encephalitozoon cuniculi GB-M1,0.029 µM
same,Kd,HLA-A*02:50,0.0123 µM
IARLVYKAR,Kd,HLA-B*15:17 [10],≥ 20 µM
same,Kd,HLA-A*02:03; [16],≥ 20 µM
same,Kd,HLA-A*11:01; [16],≥ 20 µM
same,Kd,HLA-A*02:01 [2]; [16],≥ 20 µM
same,Kd,HLA-B*08:02; [16],≥ 20 µM
same,Kd,HLA-A*03:01; [16],≥ 20 µM
same,Kd,HLA-A*31:01; [16],0.0353 µM
same,Kd,HLA-A*01:01 [3]; [16],≥ 20 µM
same,Kd,HLA-B*57:01; [16],≥ 20 µM
same,Kd,HLA-B*08:01,≥ 20 µM
same,Kd,HLA-B*40:01; [16],≥ 20 µM
same,Kd,HLA-B*27:05 [4]; [16],≥ 20 µM
same,Kd,HLA-B*48:01; [16],≥ 20 µM
same,Kd,HLA-A*69:01 [5]; [16],≥ 20 µM
same,Kd,HLA-B*07:02; [16],≥ 20 µM
same,Kd,HLA-B*58:01; [16],≥ 20 µM
same,Kd,HLA-A*26:01; [16],≥ 20 µM
same,Kd,HLA-B*46:01; [16],≥ 20 µM
same,Kd,HLA-B*15:01; [16],≥ 20 µM
same,Kd,HLA-A*68:02; [16],≥ 20 µM
same,Kd,HLA-B*08:03; [16],≥ 20 µM
GRATICGKY,IC50,HLA-B*27:05 [7]; source organism: hepatitis C virus genotype 1a,0.122 µM
SMRFESSPH,Kd,HLA-B*07:02; [17],5.35 µM
same,Kd,HLA-B*15:02; [17],0.049 µM
same,Kd,HLA-B*46:01; [14],15.5 µM
same,Kd,HLA-B*15:01; [14],0.0093 µM
